Assays:
[1] = target: human CD40 (the receptor for CD40L) on monocyte-derived dendritic cells (human) (UniProt P25942); test: cell-based or functional assay
NKT-cells = test: Expansion of NKT-cells in PBMC cultures, CD1d/KRN7000 tetramer staining; format: cell-based, human; conditions: 100 ng/ml KRN7000 pulsed on MART-1 mRNA-loaded CD40L base process DCs, versus vehicle; FIG. 15a
Description: (§1) 100 ng/ml of KRN7000 was pulsed onto the CD40L base process DCs immediately post electroporation in combination with 500 U/ml IFN-γ and 1 μg/ml PGE2, for 24 hrs of culture.
(§2) DCs were generated as described above, employing the ‘CD40L base process’, and loaded with mRNA encoding MART-1. Post electroporation, DCs were incubated with KRN7000, IFN-γ and PGE2. DCs and PBMCs were co-cultured at a 1:10 ratio in the presence of 20 U/ml IL-2. PBMCs were restimulated three times under the same conditions, and the frequency of CTL induction determined by staining with MART-1/A2 tetramers, and the expansion of NKT-cells enumerated using KRN7000/CD1d tetramers by FACS.

MART reactive T-cells = test: Induction of MART-1 specific CTLs in PBMC cultures, MART-1/HLA-A2 tetramer staining; format: cell-based, human; conditions: KRN7000 pulsed on MART-1 mRNA transfected DC, versus vehicle; FIG. 15b
Description: as §1, §2

DCs [2] = test: IL-12p70 and IL-10 secretion by DCs undergoing maturation (ELISA of culture supernatants); format: cell-based, human
Description: Human PBMCs were isolated from Leukapheresis collections from healthy volunteers provided by Life Blood (Memphis, Tenn.). PBMCs were prepared by Ficoll-Histopaque density centrifugation and washed four times in PBS at room temperature. 2×10^8 PBMCs were re-suspended in 30 ml AIM-V medium and allowed to adhere to […] plastic flasks for 2 hours at 37° C. Non-adherent cells were removed and remaining cells cultured in X-VIVO 15 medium, supplemented with GM-CSF (1000 U/ml) and IL-4 (1000 U/ml), for 5-6 days at 37 C, 5% CO2.
Prior to electroporation, DCs were harvested and washed in PBS and then re-suspended in chilled Viaspane (Barr Laboratories) at 4×10^7/ml in 0.5 ml or 2.5×10^7/ml in 0.2 ml and placed on ice. DCs were mixed with mRNA (1 or 2 μg/10^6 for mRNA encoding antigen and 4 μg/10^6 for CD40L mRNA) and placed in a 4 mm gap electroporation cuvette and electroporated using Biorad apparatus. Immediately after electroporation, DCs were washed in X-VIVO 15 medium and finally re-suspended in X-VIVO 15 supplemented with GM-CSF (800 U/ml) and IL-4 (500 U/ml) at 1×10^6/ml and cultured for either 4 or 24 hours at 37° C. in low adherence six well plates (BD Biosciences, Franklin Lakes, N.J.). Additional maturation stimuli, described below, were also added at this point.
Following electroporation, DCs transfected with CD40L mRNA were treated with IFN-γ (1000 U/ml) or TNF-α (10 ng/ml) or a combination of IFN-γ and PGE2 (1 μg/ml). By comparison, immature DCs were transfected with various antigen-encoding mRNAs and were then treated with a “cytokine cocktail” comprising of TNF-α (10 ng/ml), IL-1β (10 ng/ml), IL-6 (100 ng/ml) and PGE2 (1 μg/ml) or soluble CD40L (200 ng/ml) plus enhancer (1 μg/ml) with either simultaneous or sequential addition of 1000 U/ml IFN-γ.
The method as laid out by BD Pharmingen for IL-12 and IL-10 ELISA sets (BD Pharmingen) using BD Opt EIA reagent set B pH 9.5. Briefly, ELISA plates (BD Biosciences) were coated with anti-IL-12p70 or anti-IL-10 ELISA capture antibody in coating buffer for 24 hours at 4° C. Plates underwent blocking with 200 μl per well 10% FCS/PBS for one hour prior to the addition of standards (BD Pharmingen) and supernatant samples, in duplicate, at 100 μl per well and incubated at room temperature for 2 hours. Plates were washed and anti-cytokine detection antibody added, incubated for one hour, the plates washed and solutions replaced with 100 μl of streptavidin-HRP and further incubated for one hour at room temperature. […] Plate analysis undertaken using Bio-Tek instruments ELx800 plate reader with KC junior software (Winooski, Vt.). […] Because the assays were set up so that 1 ml corresponds to 10^6 DCs, the results can also be expressed as number of picograms/10^6 DCs. […]

[3] = target: human CD40L protein translated from transfected CD40L mRNA (CD40L WT, >400 nucleotide polyA tail) (human) (UniProt P29965); test: cell-based or functional assay
DCs [4] = test: Transwell migration assay of DCs to lymph node chemokines CCL19 and 21; format: cell-based, human; conditions: 1 μg/ml PGE2 in addition to IFN-γ, CD40L mRNA transfected DCs; FIG. 8
Description: Chemotaxis of DCs was measured by migration through a 8 μm pore size polycarbonate filter in 24 well transwell chambers (coming Costar, Acton, MA). 5% human AB serum in Iscoves modified Dulbecco's medium or AIM-V medium containing 3-300 ng/ml CCL19, 5-250 ng/ml CCL21, a combination of both or medium alone was added to the lower chamber. 1−5×10^5 DCs in 0.1 ml were added to the upper chamber and incubated for 2-3 hours at 37° C. Lower chamber harvested into 5 ml tubes (BD Biosciences) and re-suspended in 0.1 ml PBS and viable cell counts undertaken using trypan blue.

UniProt P25942, sequence (P25942 21-277 limits assumed): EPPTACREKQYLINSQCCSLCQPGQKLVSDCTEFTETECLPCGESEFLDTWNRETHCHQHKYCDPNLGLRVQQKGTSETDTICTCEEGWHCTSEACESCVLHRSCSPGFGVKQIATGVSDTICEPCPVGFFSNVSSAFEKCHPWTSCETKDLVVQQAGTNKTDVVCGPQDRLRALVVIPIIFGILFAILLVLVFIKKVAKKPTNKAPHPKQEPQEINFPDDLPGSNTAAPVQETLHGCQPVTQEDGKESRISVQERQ

“human CD40L protein translated from transfected CD40L mRNA (CD40L WT, >400 nucleotide polyA tail) (from UniProt P29965 1-261) (ligand)” was tested, and the IL-12p70 (pg/ml), "Cocktail" matured and reactivated DCs co-cultured with HeLa/>400 polyA + IFN-γ [1] was 26.3 pg/mL and the IL-12p70 (pg/ml), immature DCs co-cultured with HeLa/>400 polyA + IFN-γ [1] was 372 pg/mL.

`CCCCCCCCCCCCCCCCCCCCCCCCCC(=O)N[C@@H](CO[C@H]1O[C@H](CO)[C@H](O)[C@H](O)[C@H]1O)[C@H](O)[C@H](O)CCCCCCCCCCCCCC` [KRN7000, (2S,3S,4R)-1-O-(alpha-D-galactopyranosyl)-2-(N-hexacosanoylamino)-1,3,4-octadecanetriol] was tested, and the “frequency of NKT-cells in PBMC cultures” value (NKT-cells) was “increase the frequency of NKT-cells” and the “frequency of MART reactive T-cells” value (MART reactive T-cells) was “significantly increases the frequency of MART reactive T-cells”.

TNF-α was tested, and the IL-12 production (DCs [2]; 10 ng/ml TNF-α substituted for IFN-γ, CD40L mRNA transfected DCs, FIG. 5b) was “supports IL-12 production, but at reduced levels”.

With “blocking CD40L monoclonal antibody 24-31 (eBioscience)” the IL-12p70 (pg/ml), "Cocktail" matured and reactivated DCs co-cultured with HeLa/>400 polyA + IFN-γ + 24-31 [3] was 2.5 pg/mL and the IL-12p70 release from CD40L-mRNA-transfected DCs cultured with IFN-γ and 10 or 50 µg/ml blocking anti-CD40L antibody [3] was 50%.

`CCCCC[C@H](O)/C=C/[C@H]1[C@H](O)CC(=O)[C@@H]1C/C=C\CCCC(=O)O` [PGE2] was tested, and the DC migration (DCs [4]) was “enables the maturing DCs to migrate”.

With “pCR2.1 CD40L WT Delta X-E: CD40L RNA transcribed from plasmid modified by removal of XbaI-EcoRV fragment with three cryptic ATG codons (sense GCATGATCGAAACATACAACC; RNA transcript of DNA sequence, chemistry not fully specified)” the “induction of IL-12 expression by transfected DCs” value (DCs [2]; two independent DC transfection experiments, about 20 hrs post transfection, FIG. 18) was “performed better than the current CD40L reference standard”.

B1: IFN-γ: IFN-γ purchased from R&D Systems, first maturation signal (protein, listed as Homo sapiens)
chain: MKYTSYILAFQLCIVLGSLGCYCQDPYVKEAENLKKYFNAGHSDVADNGTLFLGILKNWKEESDRKIMQSQIVSFYFKLFKNFKDDQSIQKSVETIKEDMNVKFFNSNKKKRDDFEKLTNYSVTDLNVQRKAIHELIQVMAELSPAAKTGKRKRSQMLFQGRRASQ
For B1, the “IFN-γ required to support optimal induction of IL-12p70” value (DCs [2]; DCs transfected with 4 μg CD40L mRNA per million cells, FIG. 4) was “at least 100 U/ml” and the IL-10 production (DCs [2]; IFN-γ versus TNF-α as co-maturation factor, CD40L mRNA transfected DCs, FIG. 5c) was “lower levels of IL-10 production than does TNF-α”.

From patent publication US20080145931A1, “Mature Dendritic Cell Compositions and Methods of Culturing Same” (Argos Therapeutics, Inc., priority 2004, published 2008)
